Test results reported in patent US20170044236A1 (GENERAL HOSPITAL, published 2017).
Changes are numbered by the printed parent chain.

T1: wild-type integrin αVβ3 on cells (K562-αVβ3, M21, HEK293T) (human, UniProt P06756 31-1048; P05106 27-788)
T1 construct: also called WT αVβ3; cellular αVβ3
T1 chain 1: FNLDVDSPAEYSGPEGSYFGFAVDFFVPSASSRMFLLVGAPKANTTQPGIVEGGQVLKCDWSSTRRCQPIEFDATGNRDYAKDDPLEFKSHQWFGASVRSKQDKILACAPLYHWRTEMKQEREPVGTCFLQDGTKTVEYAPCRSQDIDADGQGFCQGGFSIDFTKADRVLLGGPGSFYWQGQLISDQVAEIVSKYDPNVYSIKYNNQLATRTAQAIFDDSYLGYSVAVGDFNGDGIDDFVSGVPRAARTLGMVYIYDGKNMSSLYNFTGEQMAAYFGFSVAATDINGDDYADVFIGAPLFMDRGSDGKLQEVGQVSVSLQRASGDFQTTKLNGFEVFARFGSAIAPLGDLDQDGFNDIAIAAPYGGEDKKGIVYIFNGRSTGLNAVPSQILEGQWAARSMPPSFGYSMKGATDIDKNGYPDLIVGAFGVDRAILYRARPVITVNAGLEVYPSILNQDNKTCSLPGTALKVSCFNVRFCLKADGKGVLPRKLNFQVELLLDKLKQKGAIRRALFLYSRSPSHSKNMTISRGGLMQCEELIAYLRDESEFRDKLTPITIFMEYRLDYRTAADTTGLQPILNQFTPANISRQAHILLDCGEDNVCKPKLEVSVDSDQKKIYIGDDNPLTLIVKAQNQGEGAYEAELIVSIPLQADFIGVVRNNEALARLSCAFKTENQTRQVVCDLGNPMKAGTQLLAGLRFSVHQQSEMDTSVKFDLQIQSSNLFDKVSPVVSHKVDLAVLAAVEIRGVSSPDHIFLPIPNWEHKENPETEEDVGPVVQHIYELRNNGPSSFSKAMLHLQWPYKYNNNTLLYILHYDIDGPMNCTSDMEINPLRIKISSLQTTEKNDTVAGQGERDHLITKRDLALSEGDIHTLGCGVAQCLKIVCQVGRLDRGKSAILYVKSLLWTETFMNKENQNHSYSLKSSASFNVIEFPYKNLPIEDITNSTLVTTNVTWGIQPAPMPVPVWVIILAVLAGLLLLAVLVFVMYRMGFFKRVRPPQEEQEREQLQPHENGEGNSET
T1 chain 2: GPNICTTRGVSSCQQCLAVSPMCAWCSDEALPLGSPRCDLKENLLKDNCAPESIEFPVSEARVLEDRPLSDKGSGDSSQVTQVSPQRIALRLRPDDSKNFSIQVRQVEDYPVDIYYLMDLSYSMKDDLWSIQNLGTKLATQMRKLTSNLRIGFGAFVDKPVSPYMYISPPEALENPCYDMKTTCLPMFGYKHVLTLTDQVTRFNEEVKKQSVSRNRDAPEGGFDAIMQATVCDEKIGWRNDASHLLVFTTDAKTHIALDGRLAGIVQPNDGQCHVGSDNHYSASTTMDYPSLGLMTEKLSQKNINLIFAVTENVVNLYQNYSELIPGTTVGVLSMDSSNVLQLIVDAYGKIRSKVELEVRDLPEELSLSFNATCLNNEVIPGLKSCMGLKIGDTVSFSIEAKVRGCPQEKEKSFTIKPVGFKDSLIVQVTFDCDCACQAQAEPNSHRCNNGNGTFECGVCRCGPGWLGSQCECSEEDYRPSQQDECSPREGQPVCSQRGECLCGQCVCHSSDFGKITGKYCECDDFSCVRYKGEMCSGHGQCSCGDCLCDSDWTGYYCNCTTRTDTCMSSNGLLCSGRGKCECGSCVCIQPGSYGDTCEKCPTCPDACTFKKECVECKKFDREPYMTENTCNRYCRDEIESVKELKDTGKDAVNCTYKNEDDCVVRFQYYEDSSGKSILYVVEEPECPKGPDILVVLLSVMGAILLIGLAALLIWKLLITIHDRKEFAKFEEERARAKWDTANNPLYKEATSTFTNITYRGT

T2: αVβ3(N339/S) on HEK293T cells (human, UniProt P06756 31-1048; P05106 27-788)
T2 construct: also called αVβ3^N/S; active αVβ3(N339/S)
T2 chain 1: T1 chain 1
T2 chain 2: T1 chain 2 with N339S

B1: wild-type 10th type-III RGD-domain of human fibronectin (wtFN10) (ligand)
chain: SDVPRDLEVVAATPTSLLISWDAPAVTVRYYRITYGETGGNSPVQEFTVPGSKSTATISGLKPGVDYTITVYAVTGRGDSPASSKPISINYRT
notes: Expressed in bacteria with an N-terminal His tag (S1417-T1509) and a thrombin cleavage site; also called wild-type FN10
B2: hFN10-G (designed binder)
chain: SDVPRDLEVVAATPTSLLISWDAPAVTVRYYRITYGETGGNSPVQEFTVPGSKSTATISGLKPGVDYTITVYAVTPGRGDWNEGSKPISINY
notes: Fluorescein-tagged in the assay; also called mhFN10

How the values were obtained:
[1] = biological target: T1, wild-type integrin αVβ3 on cells …; assay: flow cytometry, fluoresceinated fluid-phase FN10 on K562-αVβ3 cells
[2] = biological target: T2, αVβ3(N339/S) on HEK293T cells; assay: flow cytometry, fluoresceinated fluid-phase FN10 on transfected HEK293T cells, Ca2+/Mg2+
[3] = biological target: T2, αVβ3(N339/S) on HEK293T cells; assay: flow cytometry, fluorescein-tagged hFN10-G on cells

Binder | fold increase of binding (Mn2+ over Ca2+/Mg2+) [1] | fold increase of binding (N339/S over wild-type αVβ3) [2] | binding result [3]
B1 | 10 fold | 6 fold | –
B2 | – | – | no binding
